# Test: yeast display, Sf9 membrane polyspecificity reagent, FACS + sequencing; frameworks hold sequencing errors
# Procedure, shortened: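 A nanobody's polyreactivity label depends on the gate it was sorted from. Yeast display cells were stained with 10% biotinylated, detergent-solubilized Sf9 membrane reagent for 1 hour at 4 °C, enriched on streptavidin microbeads and sorted by FACS. The low and high (top ~1%) gates were set on anti-HA fluorescence for expression and streptavidin fluorescence for reagent binding.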
row,Sequence,polyreactivity (PSR sort gate)
1,QVQLVESGGGLVQAGGSLRLSCAASGSTFGDYVMGWYRQAPGKERELVATITDSGGSTYYADSVKGRFTISRDNAKNTVYLQMNSLKPEDTAVYYCNKDFSVEVYDTAYNYYSYRYGYWGQGTQVTVSS,low polyreactivity
2,QVQLVESGGGLVQAGGSLRLSCAASGSTFGENAMGWYRQAPGKERELVAAISDSGGDTYYADSVKGRFTISRDNAKNTVYLQMNSLKPEDTAVYYCAADRYGYWYAYYSWGQGTQVTVSS,low polyreactivity
3,QVQLVESGGGLVQAGGSLRLSCAASGRTFYRNAMGWYRQAPGKERELVATINSGGSTHYADSVKGRFTISRDNAKNSVYLQMNSLKPEDTAVYYCAARSPSYRGSLSYYWGHGTQVTVSS,high polyreactivity
4,QVQLVESGGGLVQAGGSLRLSCAASGRTFNSYAMGWYRQAPGKEREFVASITFSTGRTYYADSVKGRFTISRDNAKNTVYLQMNSLKPEDTAVYYCNVRFVTGYRYRYGDDYWGQGTQVTVSS,low polyreactivity
5,QVQLVESGGGLVQAGGSLRLSCAASGRISAYNAMGWYRQAPGKERELVAGISTRTGSTYYADSVKGRFTISRDNAKNTVYLQMNSLKPEDTAVYYCAAYFWGVYFFGMDYWGQGTQVTVSS,low polyreactivity
6,QVQLVQSGGGLVQAGGSLRLSCAATGSTFRIYAIGWYRQAPGKEREFVAAISDRGGRTYYADSVKGRFTISRDNAKNTVYLQMNSLKPEDTAVYYCAAVKLLSSAPGDDGQMNYWGQGTQVTVSS,low polyreactivity
7,QVQLVESGGGLVQAGGSLRLSCAASGSIFDYYTMGWYRQAPGKEREWVAAITRSGGRTYYADSVKGRFTISRDNAKNTVYLQMNSLKPEDTAVYYCATRAVSRFGNGPYDYWGQGTQVTVSS,high polyreactivity
8,QVQLVESGGGLVQAGGILRFSCAASGRISVVNAMAWFRQAPGKARELVAAIRRASTNYADSVKGRFTISRDNAKNTVYLQMNSLKPEDTAVYYCAARVYGINIFEYWGQGTQVTLSS,high polyreactivity
9,QVQLVESGGGLVQAGGSLRLSCAASGRIFKRYAMGWSRQAPGKDRELVATITTSGDSTYYADSVKGRFTISRDNAKNTVYLQMNSLKPEDTAVYDCAARSYRGRRYDYWGQGTQVTVSS,high polyreactivity
10,QVQLVESGGCLVQAGGSLSLSCAASGSTFVAYAMGWYRQAPGKESELVAAISKSGVRTYYADYVKGRFTISRDNAKNTVYLQMNSLKPEDSAFYYCAALTYYSQVTSSVSLQQYGYWGQVTQVTVSS,low polyreactivity
11,QLQLVESGGGLVQAGGSLRLSCAASGYIFFKYAMGWYRQAPWKERELVASITSRGGTTYYADSVKGRFTISRDNAKNTVYLQMNSLKPEDTAVYYCAALRRSSFGYWGQGTQVTVSS,high polyreactivity
12,QVQLVESGGGLVQAGGSLRLSCPASGITFHGYAMGWYTQEPGKERELVAAITRGGSTYYADSVKGRFTISRDNAKNTVYLQMNSLKPEDTAVYYCAARRVGYSTNYYHYNYWGQGTQVSVSS,high polyreactivity
13,QVQLQESGGRLVQAGGSLRMSCAASGTIFSEANMGWYRQAPGKERELVATIGQGSTTNYADSVKGLFTISRDNAKNTVYLQMNSLKPEETAVYYCAVVTVDPVGFVYWGQGTQVTVSS,low polyreactivity
14,QVQLVESGVGLVQAGGSLLLICAASGRIFGANAMGLYRQAPGKERELVAAISRTGGSTNYADSVKGRFTISRDNAINTVFLQMYSLKPEDTAVYYCNAVYRYAHPMEYWGQGTQVTVSS,high polyreactivity
15,QVQLVESGGGLVQAGGSLRLSCAASGSIFRKYAMGWYRQAPGKEREFVAAISRSGGGTYYADSVKGRFTISRDNAKNTVYLQMNSLKPEDTAVYYCAAEFRTGLQGEHYYWGQGTQVTVSS,low polyreactivity
16,QVQLVESGGALVQAGGSLRLSCAASGRIFASNGMGWYRQAPGKEREFVAAINRSGGSTYYADSVKGRFTISRDNAKNTVYLQMNSLKPEDTAVYYCNKDYLYSYLWGWKVYSYDYWGQGTQVTVSS,low polyreactivity
